T1: endogenous rat mitochondrial aldehyde dehydrogenase (ALDH2) of H4-II-E-C3 hepatoma cells, P11884
T1 chain: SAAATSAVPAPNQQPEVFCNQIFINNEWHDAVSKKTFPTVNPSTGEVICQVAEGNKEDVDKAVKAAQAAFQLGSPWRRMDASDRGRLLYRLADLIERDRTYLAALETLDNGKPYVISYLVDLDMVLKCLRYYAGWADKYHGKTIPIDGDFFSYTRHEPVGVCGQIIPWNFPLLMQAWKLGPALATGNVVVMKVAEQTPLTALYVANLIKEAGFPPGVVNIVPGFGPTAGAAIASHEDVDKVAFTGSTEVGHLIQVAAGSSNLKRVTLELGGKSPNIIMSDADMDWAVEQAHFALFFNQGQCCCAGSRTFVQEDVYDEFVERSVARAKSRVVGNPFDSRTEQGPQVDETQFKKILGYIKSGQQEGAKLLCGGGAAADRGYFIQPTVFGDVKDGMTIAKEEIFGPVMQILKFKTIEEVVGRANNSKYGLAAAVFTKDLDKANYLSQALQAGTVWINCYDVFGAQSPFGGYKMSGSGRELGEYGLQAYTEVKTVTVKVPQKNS


Target: T1, endogenous rat mitochondrial aldehyde …

Protein	ALDH2 specific activity of ALDH2-2 transduced H4 clones (lower end of range) (nanomoles/minute/milligram protein)	ALDH2 specific activity of ALDH2-2 transduced H4 clones (mean ± SEM, N=22) (nanomoles/minute/milligram protein)	ALDH2 specific activity of ALDH2-2 transduced H4 clones (upper end of range) (nanomoles/minute/milligram protein)	reduction in hepatocyte ALDH2 activity	ALDH2 specific activity of ALDH2-1 transduced H4 clones (lower end of range) (nanomoles/minute/milligram protein)	ALDH2 specific activity of ALDH2-1 transduced H4 clones (mean ± SEM, N=15) (nanomoles/minute/milligram protein)	ALDH2 specific activity of ALDH2-1 transduced H4 clones (upper end of range) (nanomoles/minute/milligram protein)	increase of ALDH activity relative to the empty vector control group
human ALDH2-2 (mutant) monomer, expressed from the retroviral vector pLHCK3'UT in rat hepatoma H4-II-E-C3 cells (protein) SAAATQAVPAPNQQPEVFCNQIFINNEWHDAVSRKTFPTVNPSTGEVICQVAEGDKEDVDKAVKAARAAFQLGSPWRRMDASHRGRLLNRLADLIERDRTYLAALETLDNGKPYVISYLVDLDMVLKCLRYYAGWADKYHGKTIPIDGDFFSYTRHEPVGVCGQIIPWNFPLLMQAWKLGPALATGNVVVMKVAEQTPLTALYVANLIKEAGFPPGVVNIVPGFGPTAGAAIASHEDVDKVAFTGSTEIGRVIQVAAGSSNLKRVTLELGGKSPNIIMSDADMDWAVEQAHFALFFNQGQCCCAGSRTFVQEDIYDEFVERSVARAKSRVVGNPFDSKTEQGPQVDETQFKKILGYINTGKQEGAKLLCGGGIAADRGYFIQPTVFGDVQDGMTIAKEEIFGPVMQILKFKTIEEVVGRANNSTYGLAAAVFTKDLDKANYLSQALQAGTVWVNCYDVFGAQSPFGGYKMSGSGRELGEYGLQAYTKVKTVTVKVPQKNS	15	40.4	54	leads to a >60% reduction in hepatocyte ALDH2 activity	–	–	–	–
human ALDH2-1 (wild-type) monomer, expressed from the retroviral vector pLNCE in rat hepatoma H4-II-E-C3 cells (protein) SAAATQAVPAPNQQPEVFCNQIFINNEWHDAVSRKTFPTVNPSTGEVICQVAEGDKEDVDKAVKAARAAFQLGSPWRRMDASHRGRLLNRLADLIERDRTYLAALETLDNGKPYVISYLVDLDMVLKCLRYYAGWADKYHGKTIPIDGDFFSYTRHEPVGVCGQIIPWNFPLLMQAWKLGPALATGNVVVMKVAEQTPLTALYVANLIKEAGFPPGVVNIVPGFGPTAGAAIASHEDVDKVAFTGSTEIGRVIQVAAGSSNLKRVTLELGGKSPNIIMSDADMDWAVEQAHFALFFNQGQCCCAGSRTFVQEDIYDEFVERSVARAKSRVVGNPFDSKTEQGPQVDETQFKKILGYINTGKQEGAKLLCGGGIAADRGYFIQPTVFGDVQDGMTIAKEEIFGPVMQILKFKTIEEVVGRANNSTYGLAAAVFTKDLDKANYLSQALQAGTVWVNCYDVFGAQSPFGGYKMSGSGRELGEYGLQAYTEVKTVTVKVPQKNS	–	–	–	–	42	54.7	78	ALDH activity was increased by as much as 52% in some ALDH2-1 transduced clones
